Reference: the supplement of paper PMC12855868

B1: library; numbered along this chain (parent)
chain: MAAAGGARLLRAASAVLGGPAGRWLHHAGSRAGSSGLLRNRGPGGSAEASRSLSVSARARSSSEDKITVHFINRDGETLTTKGKVGDSLLDVVVENNLDIDGFGACEGTLACSTCHLIFEDHIYEKLDAITDEENDMLDLAYGLTDRSRLGCQICLTKSMDNMTVRVPETVADARQSIDVGKTS

Variants of: B1
Experiment: scaled log2 fold change in cell abundance, elesclomol vs control (0 = silent mean, 1 = nonsense mean) (scaled log2 ratio); higher = higher viability under elesclomol (loss of FDX1 cuproptosis function)
Settings: glucose 10 mM
Experimental: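 Deep mutational scan of full-length human FDX1: a pooled saturation-mutagenesis ORF library (every residue 2-184 mutated to all 19 amino acids plus stop, and silent codons where available) was expressed by lentivirus in FDX1-knockout ABC1 (14 days) or HEK293T (11 days) cells grown with elesclomol (ES) or DMSO control. Variant abundance came from ORF sequencing. The log2 fold change (ES vs control, mean of duplicates) was centred on the silent-variant mean (0) and scaled to the nonsense-variant mean (1). Higher values mean greater viability under ES, i.e. loss of FDX1 function in cuproptosis.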

[1] = with ABC1 FDX1 KO, elesclomol 5 nM, 14 days
[2] = with HEK293T FDX1 KO, elesclomol 40 nM, 11 days
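Further: variant abundance is its share of total variant reads in each endpoint sample, from next-generation sequencing of the integrated ORF PCR-amplified out of genomic DNA.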

Variant | scaled log2 fold change [1] | scaled log2 fold change [2]
MAAAGGARRLRAASAVLGGPAGRWLHHAGSRAGSSGLLRNRGPGGSAEASRSLSVSARARSSSEDKITVHFINRDGETLTTKGKVGDSLLDVVVENNLDIDGFGACEGTLACSTCHLIFEDHIYEKLDAITDEENDMLDLAYGLTDRSRLGCQICLTKSMDNMTVRVPETVADARQSIDVGKTS [L9R] | 0.455 | -0.0809
MAAAGGARKLRAASAVLGGPAGRWLHHAGSRAGSSGLLRNRGPGGSAEASRSLSVSARARSSSEDKITVHFINRDGETLTTKGKVGDSLLDVVVENNLDIDGFGACEGTLACSTCHLIFEDHIYEKLDAITDEENDMLDLAYGLTDRSRLGCQICLTKSMDNMTVRVPETVADARQSIDVGKTS [L9K] | 0.158 | 
MAAAGGARSLRAASAVLGGPAGRWLHHAGSRAGSSGLLRNRGPGGSAEASRSLSVSARARSSSEDKITVHFINRDGETLTTKGKVGDSLLDVVVENNLDIDGFGACEGTLACSTCHLIFEDHIYEKLDAITDEENDMLDLAYGLTDRSRLGCQICLTKSMDNMTVRVPETVADARQSIDVGKTS [L9S] | 0.156 | -0.659
MAAAGGARNLRAASAVLGGPAGRWLHHAGSRAGSSGLLRNRGPGGSAEASRSLSVSARARSSSEDKITVHFINRDGETLTTKGKVGDSLLDVVVENNLDIDGFGACEGTLACSTCHLIFEDHIYEKLDAITDEENDMLDLAYGLTDRSRLGCQICLTKSMDNMTVRVPETVADARQSIDVGKTS [L9N] | 0.353 | -0.636
MAAAGGARYLRAASAVLGGPAGRWLHHAGSRAGSSGLLRNRGPGGSAEASRSLSVSARARSSSEDKITVHFINRDGETLTTKGKVGDSLLDVVVENNLDIDGFGACEGTLACSTCHLIFEDHIYEKLDAITDEENDMLDLAYGLTDRSRLGCQICLTKSMDNMTVRVPETVADARQSIDVGKTS [L9Y] | 0.485 | -0.192
MAAAGGARWLRAASAVLGGPAGRWLHHAGSRAGSSGLLRNRGPGGSAEASRSLSVSARARSSSEDKITVHFINRDGETLTTKGKVGDSLLDVVVENNLDIDGFGACEGTLACSTCHLIFEDHIYEKLDAITDEENDMLDLAYGLTDRSRLGCQICLTKSMDNMTVRVPETVADARQSIDVGKTS [L9W] | 0.434 | 0.233
MAAAGGARVLRAASAVLGGPAGRWLHHAGSRAGSSGLLRNRGPGGSAEASRSLSVSARARSSSEDKITVHFINRDGETLTTKGKVGDSLLDVVVENNLDIDGFGACEGTLACSTCHLIFEDHIYEKLDAITDEENDMLDLAYGLTDRSRLGCQICLTKSMDNMTVRVPETVADARQSIDVGKTS [L9V] | 0.286 | -0.433
MAAAGGARMLRAASAVLGGPAGRWLHHAGSRAGSSGLLRNRGPGGSAEASRSLSVSARARSSSEDKITVHFINRDGETLTTKGKVGDSLLDVVVENNLDIDGFGACEGTLACSTCHLIFEDHIYEKLDAITDEENDMLDLAYGLTDRSRLGCQICLTKSMDNMTVRVPETVADARQSIDVGKTS [L9M] | 0.105 | 0.772
MAAAGGARTLRAASAVLGGPAGRWLHHAGSRAGSSGLLRNRGPGGSAEASRSLSVSARARSSSEDKITVHFINRDGETLTTKGKVGDSLLDVVVENNLDIDGFGACEGTLACSTCHLIFEDHIYEKLDAITDEENDMLDLAYGLTDRSRLGCQICLTKSMDNMTVRVPETVADARQSIDVGKTS [L9T] | 0.431 | 
MAAAGGARPLRAASAVLGGPAGRWLHHAGSRAGSSGLLRNRGPGGSAEASRSLSVSARARSSSEDKITVHFINRDGETLTTKGKVGDSLLDVVVENNLDIDGFGACEGTLACSTCHLIFEDHIYEKLDAITDEENDMLDLAYGLTDRSRLGCQICLTKSMDNMTVRVPETVADARQSIDVGKTS [L9P] | 0.629 | 0.0788
MAAAGGARQLRAASAVLGGPAGRWLHHAGSRAGSSGLLRNRGPGGSAEASRSLSVSARARSSSEDKITVHFINRDGETLTTKGKVGDSLLDVVVENNLDIDGFGACEGTLACSTCHLIFEDHIYEKLDAITDEENDMLDLAYGLTDRSRLGCQICLTKSMDNMTVRVPETVADARQSIDVGKTS [L9Q] | -0.0581 | 1.04
MAAAGGARLHRAASAVLGGPAGRWLHHAGSRAGSSGLLRNRGPGGSAEASRSLSVSARARSSSEDKITVHFINRDGETLTTKGKVGDSLLDVVVENNLDIDGFGACEGTLACSTCHLIFEDHIYEKLDAITDEENDMLDLAYGLTDRSRLGCQICLTKSMDNMTVRVPETVADARQSIDVGKTS [L10H] | 0.222 | -0.209
MAAAGGARLFRAASAVLGGPAGRWLHHAGSRAGSSGLLRNRGPGGSAEASRSLSVSARARSSSEDKITVHFINRDGETLTTKGKVGDSLLDVVVENNLDIDGFGACEGTLACSTCHLIFEDHIYEKLDAITDEENDMLDLAYGLTDRSRLGCQICLTKSMDNMTVRVPETVADARQSIDVGKTS [L10F] | -0.0904 | -0.0054
MAAAGGARLERAASAVLGGPAGRWLHHAGSRAGSSGLLRNRGPGGSAEASRSLSVSARARSSSEDKITVHFINRDGETLTTKGKVGDSLLDVVVENNLDIDGFGACEGTLACSTCHLIFEDHIYEKLDAITDEENDMLDLAYGLTDRSRLGCQICLTKSMDNMTVRVPETVADARQSIDVGKTS [L10E] | 0.307 | -0.18
MAAAGGARLIRAASAVLGGPAGRWLHHAGSRAGSSGLLRNRGPGGSAEASRSLSVSARARSSSEDKITVHFINRDGETLTTKGKVGDSLLDVVVENNLDIDGFGACEGTLACSTCHLIFEDHIYEKLDAITDEENDMLDLAYGLTDRSRLGCQICLTKSMDNMTVRVPETVADARQSIDVGKTS [L10I] | -0.165 | 0.0157
MAAAGGARLDRAASAVLGGPAGRWLHHAGSRAGSSGLLRNRGPGGSAEASRSLSVSARARSSSEDKITVHFINRDGETLTTKGKVGDSLLDVVVENNLDIDGFGACEGTLACSTCHLIFEDHIYEKLDAITDEENDMLDLAYGLTDRSRLGCQICLTKSMDNMTVRVPETVADARQSIDVGKTS [L10D] | 0.404 | 0.0467
MAAAGGARLGRAASAVLGGPAGRWLHHAGSRAGSSGLLRNRGPGGSAEASRSLSVSARARSSSEDKITVHFINRDGETLTTKGKVGDSLLDVVVENNLDIDGFGACEGTLACSTCHLIFEDHIYEKLDAITDEENDMLDLAYGLTDRSRLGCQICLTKSMDNMTVRVPETVADARQSIDVGKTS [L10G] | 0.705 | 
MAAAGGARLCRAASAVLGGPAGRWLHHAGSRAGSSGLLRNRGPGGSAEASRSLSVSARARSSSEDKITVHFINRDGETLTTKGKVGDSLLDVVVENNLDIDGFGACEGTLACSTCHLIFEDHIYEKLDAITDEENDMLDLAYGLTDRSRLGCQICLTKSMDNMTVRVPETVADARQSIDVGKTS [L10C] | -0.592 | 0.0724
